This is an account of results in patent US20190338009A1 (ZEALAND PHARMA A S, published 2019).

Square brackets hold non-standard residues; d marks the D form. Aib = CC(C)(N)C(=O)O

In assay [1] the target is T1, human GLP-2 receptor (hGLP2-R) (human, UniProt O95838 1-553).
T1 sequence (looked up): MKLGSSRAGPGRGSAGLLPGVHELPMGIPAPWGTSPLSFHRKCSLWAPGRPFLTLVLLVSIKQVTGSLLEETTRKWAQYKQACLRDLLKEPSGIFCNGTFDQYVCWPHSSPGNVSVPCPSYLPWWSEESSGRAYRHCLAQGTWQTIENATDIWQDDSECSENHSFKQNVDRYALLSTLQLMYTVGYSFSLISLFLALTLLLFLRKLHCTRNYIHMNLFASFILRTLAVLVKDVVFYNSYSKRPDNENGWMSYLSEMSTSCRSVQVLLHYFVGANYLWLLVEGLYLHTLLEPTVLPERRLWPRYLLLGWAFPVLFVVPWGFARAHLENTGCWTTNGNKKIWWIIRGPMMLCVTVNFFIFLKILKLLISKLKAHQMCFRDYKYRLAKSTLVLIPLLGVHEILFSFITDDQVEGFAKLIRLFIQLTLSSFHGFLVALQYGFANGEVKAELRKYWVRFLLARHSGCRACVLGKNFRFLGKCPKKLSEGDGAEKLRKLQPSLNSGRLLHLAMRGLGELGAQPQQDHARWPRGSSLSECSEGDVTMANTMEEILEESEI
The assay can be described thus: cell-based or functional assay.

In assay [2] the target is human glucagon-like peptide 1 receptor (GLP-1R) (human, UniProt P43220 24-463). The assay can be described thus: cell-based or functional assay.

Turning to H-HGEGSFSSELATILDEQAARDFIAWLIQHKITD-NH2 [Compound 40], the “EC50 GLP-2 (nM); cAMP AlphaScreen, HEK293 cells expressing human GLP-2R” value (“EC50 GLP-2 (nM); cAMP AlphaScreen” for short) in assay [1] was found to be 0.05 nM. In addition, the “EC50 GLP-1 (nM); cAMP AlphaScreen, HEK293 cells expressing human GLP-1R” value (“EC50 GLP-1 (nM); cAMP AlphaScreen” for short) in assay [2] was 1.4 nM.

B1: Compound 36 (peptide)
peptide: H-H[Aib]EGTFTSELATILDEQAARDFINWLKSYKITD-OH
SMILES: CC[C@H](C)[C@H](NC(=O)[C@H](Cc1ccccc1)NC(=O)[C@H](CC(=O)O)NC(=O)[C@H](CCCNC(=N)N)NC(=O)[C@H](C)NC(=O)[C@H](C)NC(=O)[C@H](CCC(N)=O)NC(=O)[C@H](CCC(=O)O)NC(=O)[C@H](CC(=O)O)NC(=O)[C@H](CC(C)C)NC(=O)[C@@H](NC(=O)[C@@H](NC(=O)[C@H](C)NC(=O)[C@H](CC(C)C)NC(=O)[C@H](CCC(=O)O)NC(=O)[C@H](CO)NC(=O)[C@@H](NC(=O)[C@H](Cc1ccccc1)NC(=O)[C@@H](NC(=O)CNC(=O)[C@H](CCC(=O)O)NC(=O)C(C)(C)NC(=O)[C@@H](N)Cc1c[nH]cn1)[C@@H](C)O)[C@@H](C)O)[C@@H](C)O)[C@@H](C)CC)C(=O)N[C@@H](CC(N)=O)C(=O)N[C@@H](Cc1c[nH]c2ccccc12)C(=O)N[C@@H](CC(C)C)C(=O)N[C@@H](CCCCN)C(=O)N[C@@H](CO)C(=O)N[C@@H](Cc1ccc(O)cc1)C(=O)N[C@@H](CCCCN)C(=O)N[C@H](C(=O)N[C@H](C(=O)N[C@@H](CC(=O)O)C(=O)O)[C@@H](C)O)[C@@H](C)CC
B1: the “EC50 GLP-2 (nM); cAMP AlphaScreen” value in assay [1] came to 0.11 nM. In assay [2], the “EC50 GLP-1 (nM); cAMP AlphaScreen” value stood at 0.007 nM.

B2: Compound 37 (peptide)
peptide: H-H[Aib]EGTFTSELATILDEQAARDFINWLKEQKITD-OH
SMILES: CC[C@H](C)[C@H](NC(=O)[C@H](Cc1ccccc1)NC(=O)[C@H](CC(=O)O)NC(=O)[C@H](CCCNC(=N)N)NC(=O)[C@H](C)NC(=O)[C@H](C)NC(=O)[C@H](CCC(N)=O)NC(=O)[C@H](CCC(=O)O)NC(=O)[C@H](CC(=O)O)NC(=O)[C@H](CC(C)C)NC(=O)[C@@H](NC(=O)[C@@H](NC(=O)[C@H](C)NC(=O)[C@H](CC(C)C)NC(=O)[C@H](CCC(=O)O)NC(=O)[C@H](CO)NC(=O)[C@@H](NC(=O)[C@H](Cc1ccccc1)NC(=O)[C@@H](NC(=O)CNC(=O)[C@H](CCC(=O)O)NC(=O)C(C)(C)NC(=O)[C@@H](N)Cc1c[nH]cn1)[C@@H](C)O)[C@@H](C)O)[C@@H](C)O)[C@@H](C)CC)C(=O)N[C@@H](CC(N)=O)C(=O)N[C@@H](Cc1c[nH]c2ccccc12)C(=O)N[C@@H](CC(C)C)C(=O)N[C@@H](CCCCN)C(=O)N[C@@H](CCC(=O)O)C(=O)N[C@@H](CCC(N)=O)C(=O)N[C@@H](CCCCN)C(=O)N[C@H](C(=O)N[C@H](C(=O)N[C@@H](CC(=O)O)C(=O)O)[C@@H](C)O)[C@@H](C)CC
For B2, the “EC50 GLP-2 (nM); cAMP AlphaScreen” value in assay [1] is 0.16 nM. The “EC50 GLP-1 (nM); cAMP AlphaScreen” value in assay [2] was 0.007 nM.

B3: Compound 35 (peptide)
peptide: H-H[Aib]EGTFTSELATILDEQAARDFINWLKAHKITD-OH
SMILES: CC[C@H](C)[C@H](NC(=O)[C@H](Cc1ccccc1)NC(=O)[C@H](CC(=O)O)NC(=O)[C@H](CCCNC(=N)N)NC(=O)[C@H](C)NC(=O)[C@H](C)NC(=O)[C@H](CCC(N)=O)NC(=O)[C@H](CCC(=O)O)NC(=O)[C@H](CC(=O)O)NC(=O)[C@H](CC(C)C)NC(=O)[C@@H](NC(=O)[C@@H](NC(=O)[C@H](C)NC(=O)[C@H](CC(C)C)NC(=O)[C@H](CCC(=O)O)NC(=O)[C@H](CO)NC(=O)[C@@H](NC(=O)[C@H](Cc1ccccc1)NC(=O)[C@@H](NC(=O)CNC(=O)[C@H](CCC(=O)O)NC(=O)C(C)(C)NC(=O)[C@@H](N)Cc1c[nH]cn1)[C@@H](C)O)[C@@H](C)O)[C@@H](C)O)[C@@H](C)CC)C(=O)N[C@@H](CC(N)=O)C(=O)N[C@@H](Cc1c[nH]c2ccccc12)C(=O)N[C@@H](CC(C)C)C(=O)N[C@@H](CCCCN)C(=O)N[C@@H](C)C(=O)N[C@@H](Cc1c[nH]cn1)C(=O)N[C@@H](CCCCN)C(=O)N[C@H](C(=O)N[C@H](C(=O)N[C@@H](CC(=O)O)C(=O)O)[C@@H](C)O)[C@@H](C)CC
In the case of B3, the “EC50 GLP-2 (nM); cAMP AlphaScreen” value in assay [1] is 0.048 nM. Further, in assay [2], the “EC50 GLP-1 (nM); cAMP AlphaScreen” value came out at 0.006 nM.
Taken in the same sequence, the figures for H-HGEGTFTSELATILDEQAARDFIAWLIAHKITD-OH [Compound 38] were 0.043 nM and 0.008 nM.

B4: Compound 39 (peptide)
peptide: H-H[Aib]EGTFSSELSTILEEQASREFIAWLIAHKITE-OH
SMILES: CC[C@H](C)[C@H](NC(=O)[C@H](CC(C)C)NC(=O)[C@H](Cc1c[nH]c2ccccc12)NC(=O)[C@H](C)NC(=O)[C@@H](NC(=O)[C@H](Cc1ccccc1)NC(=O)[C@H](CCC(=O)O)NC(=O)[C@H](CCCNC(=N)N)NC(=O)[C@H](CO)NC(=O)[C@H](C)NC(=O)[C@H](CCC(N)=O)NC(=O)[C@H](CCC(=O)O)NC(=O)[C@H](CCC(=O)O)NC(=O)[C@H](CC(C)C)NC(=O)[C@@H](NC(=O)[C@@H](NC(=O)[C@H](CO)NC(=O)[C@H](CC(C)C)NC(=O)[C@H](CCC(=O)O)NC(=O)[C@H](CO)NC(=O)[C@H](CO)NC(=O)[C@H](Cc1ccccc1)NC(=O)[C@@H](NC(=O)CNC(=O)[C@H](CCC(=O)O)NC(=O)C(C)(C)NC(=O)[C@@H](N)Cc1c[nH]cn1)[C@@H](C)O)[C@@H](C)O)[C@@H](C)CC)[C@@H](C)CC)C(=O)N[C@@H](C)C(=O)N[C@@H](Cc1c[nH]cn1)C(=O)N[C@@H](CCCCN)C(=O)N[C@H](C(=O)N[C@H](C(=O)N[C@@H](CCC(=O)O)C(=O)O)[C@@H](C)O)[C@@H](C)CC
Take B4: in assay [1], the “EC50 GLP-2 (nM); cAMP AlphaScreen” value was determined as 0.96 nM. Besides, the “EC50 GLP-1 (nM); cAMP AlphaScreen” value in assay [2] was 0.03 nM.

B5: Compound 41 (peptide)
peptide: H-H[Aib]EGSFSSELATILDEQAARDFIAWLIQHKITD-OH
SMILES: CC[C@H](C)[C@H](NC(=O)[C@H](Cc1ccccc1)NC(=O)[C@H](CC(=O)O)NC(=O)[C@H](CCCNC(=N)N)NC(=O)[C@H](C)NC(=O)[C@H](C)NC(=O)[C@H](CCC(N)=O)NC(=O)[C@H](CCC(=O)O)NC(=O)[C@H](CC(=O)O)NC(=O)[C@H](CC(C)C)NC(=O)[C@@H](NC(=O)[C@@H](NC(=O)[C@H](C)NC(=O)[C@H](CC(C)C)NC(=O)[C@H](CCC(=O)O)NC(=O)[C@H](CO)NC(=O)[C@H](CO)NC(=O)[C@H](Cc1ccccc1)NC(=O)[C@H](CO)NC(=O)CNC(=O)[C@H](CCC(=O)O)NC(=O)C(C)(C)NC(=O)[C@@H](N)Cc1c[nH]cn1)[C@@H](C)O)[C@@H](C)CC)C(=O)N[C@@H](C)C(=O)N[C@@H](Cc1c[nH]c2ccccc12)C(=O)N[C@@H](CC(C)C)C(=O)N[C@H](C(=O)N[C@@H](CCC(N)=O)C(=O)N[C@@H](Cc1c[nH]cn1)C(=O)N[C@@H](CCCCN)C(=O)N[C@H](C(=O)N[C@H](C(=O)N[C@@H](CC(=O)O)C(=O)O)[C@@H](C)O)[C@@H](C)CC)[C@@H](C)CC
As for B5, the “EC50 GLP-2 (nM); cAMP AlphaScreen” value in assay [1] turned out to be 0.026 nM. Moreover, in assay [2], the “EC50 GLP-1 (nM); cAMP AlphaScreen” value came to 0.078 nM.
